Laboratory results from paper PMC5651841, “The Staphylococcus aureus extracellular matrix protein (Emp) has a fibrous structure and binds to different extracellular matrices” (Scientific Reports, 2017).

T1: fibrinogen (UniProt P02671-2 20-644; P02675 31-491; P02679-2 27-437)
T1 construct: fibrinogen alpha chain; fibrinogen beta chain; fibrinogen gamma chain; Named only as fibrinogen; also called Fg
T1 sequence (looked up) 1: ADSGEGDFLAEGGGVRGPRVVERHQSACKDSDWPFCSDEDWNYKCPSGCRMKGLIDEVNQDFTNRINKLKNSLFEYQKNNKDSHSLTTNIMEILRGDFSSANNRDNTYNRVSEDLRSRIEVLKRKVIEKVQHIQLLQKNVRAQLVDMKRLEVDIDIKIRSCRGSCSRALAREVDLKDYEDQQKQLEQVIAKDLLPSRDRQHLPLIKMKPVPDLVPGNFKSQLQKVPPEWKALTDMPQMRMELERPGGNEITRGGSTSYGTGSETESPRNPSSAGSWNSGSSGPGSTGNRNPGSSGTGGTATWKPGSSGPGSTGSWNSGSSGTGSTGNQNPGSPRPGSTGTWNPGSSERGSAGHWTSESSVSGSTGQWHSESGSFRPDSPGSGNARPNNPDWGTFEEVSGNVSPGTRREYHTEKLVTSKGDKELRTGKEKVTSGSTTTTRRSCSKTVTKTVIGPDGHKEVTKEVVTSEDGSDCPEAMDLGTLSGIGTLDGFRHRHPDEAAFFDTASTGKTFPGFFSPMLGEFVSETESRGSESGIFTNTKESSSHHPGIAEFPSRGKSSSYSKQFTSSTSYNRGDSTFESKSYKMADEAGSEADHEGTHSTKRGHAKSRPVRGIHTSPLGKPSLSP
T1 sequence (looked up) 2: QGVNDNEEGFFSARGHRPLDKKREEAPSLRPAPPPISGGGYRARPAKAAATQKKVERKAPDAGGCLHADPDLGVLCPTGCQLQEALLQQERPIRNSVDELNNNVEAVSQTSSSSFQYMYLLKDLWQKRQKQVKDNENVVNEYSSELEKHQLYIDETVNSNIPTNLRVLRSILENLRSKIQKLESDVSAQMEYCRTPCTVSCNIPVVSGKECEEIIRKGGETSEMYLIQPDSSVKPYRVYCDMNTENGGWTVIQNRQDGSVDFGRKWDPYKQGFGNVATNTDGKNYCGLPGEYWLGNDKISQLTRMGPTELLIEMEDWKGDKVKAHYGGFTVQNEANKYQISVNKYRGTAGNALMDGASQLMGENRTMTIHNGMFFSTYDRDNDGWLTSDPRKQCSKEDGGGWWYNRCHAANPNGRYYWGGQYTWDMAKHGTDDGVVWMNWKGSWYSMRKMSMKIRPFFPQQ
T1 sequence (looked up) 3: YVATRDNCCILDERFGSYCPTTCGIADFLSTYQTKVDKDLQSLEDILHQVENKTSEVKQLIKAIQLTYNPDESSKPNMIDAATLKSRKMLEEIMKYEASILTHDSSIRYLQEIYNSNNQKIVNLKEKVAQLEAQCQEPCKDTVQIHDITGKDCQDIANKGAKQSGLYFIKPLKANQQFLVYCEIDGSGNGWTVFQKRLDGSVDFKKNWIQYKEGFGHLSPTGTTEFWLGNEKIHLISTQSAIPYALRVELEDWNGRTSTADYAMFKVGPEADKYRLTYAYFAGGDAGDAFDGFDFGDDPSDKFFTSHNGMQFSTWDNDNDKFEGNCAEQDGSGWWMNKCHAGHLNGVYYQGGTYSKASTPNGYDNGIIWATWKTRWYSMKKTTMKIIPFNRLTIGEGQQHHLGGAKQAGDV

B1: Emp2 (central fragment of Emp) (domain or fragment)
chain: YKEINNRVNVATNNPASQQVDKHFVAKGPEVNRFITQNKVNHHFITTQTHYKKVITSYKSTHVHKHVNHAKDSINKHFIVKPSESPRYTHPSQSLIIKHHFAVPGYHAH
notes: primers EmpFor2UA (+322) and EmpRev2UA (+648) relative to ATG; limits worked out from these positions and count on the precursor; source: E. coli (TG1 transformants, plasmid pQemp2), purified (Ni-NTA in 8 M urea, solubilized by stepwise dialysis)
B2: Emp2+3 (combination of Emp2 and Emp3; N-truncated Emp) (domain or fragment)
chain: YKEINNRVNVATNNPASQQVDKHFVAKGPEVNRFITQNKVNHHFITTQTHYKKVITSYKSTHVHKHVNHAKDSINKHFIVKPSESPRYTHPSQSLIIKHHFAVPGYHAHKFVTPGHASIKINHFCVVPQINSFKVIPPYGHNSHRMHVPSFQNNTTATHQNAKVNKAYDYKYFYSYKVVKGVKKYFSFSQSNGYKIGKPSLNIKNVNYQYAVPSYSPTHYVPEFKGSLPAPRV
notes: limits worked out from these positions and count on the precursor; source: E. coli (TG1 transformants, plasmid pQemp2 + 3), purified (Ni-NTA in 8 M urea, solubilized by stepwise dialysis)
B3: Emp1+2 (combination of Emp1 and Emp2) (domain or fragment)
chain: ASVTESVDKKFVVPESGINKIIPAYDEFKNSPKVNVSNLTDNKNFVASEDKLNKIADSSAASKIVDKNFVVPESKLGNIVPEYKEINNRVNVATNNPASQQVDKHFVAKGPEVNRFITQNKVNHHFITTQTHYKKVITSYKSTHVHKHVNHAKDSINKHFIVKPSESPRYTHPSQSLIIKHHFAVPGYHAH
notes: limits worked out from these positions and count on the precursor; source: E. coli (TG1 transformants, plasmid pQemp1 + 2), purified (Ni-NTA in 8 M urea, solubilized by stepwise dialysis)
B4: full-length Emp protein (extracellular matrix protein Emp of Staphylococcus aureus, without the signal peptide) (natural protein)
chain: SVTESVDKKFVVPESGINKIIPAYDEFKNSPKVNVSNLTDNKNFVASEDKLNKIADSSAASKIVDKNFVVPESKLGNIVPEYKEINNRVNVATNNPASQQVDKHFVAKGPEVNRFITQNKVNHHFITTQTHYKKVITSYKSTHVHKHVNHAKDSINKHFIVKPSESPRYTHPSQSLIIKHHFAVPGYHAHKFVTPGHASIKINHFCVVPQINSFKVIPPYGHNSHRMHVPSFQNNTTATHQNAKVNKAYDYKYFYSYKVVKGVKKYFSFSQSNGYKIGKPSLNIKNVNYQYAVPSYSPTHYVPEFKGSLPAPRV
notes: gene of 1,023 nucleotides; numbers count on: the protein without signal peptide and without His-tag; The vector (printed pQ30-UA, Qiagen) probably adds an N-terminal His6 (surmised); Primer EmpFor1UA starts at nt +76 (codon 26), which would give 315 residues against the printed 314; also called EmpFL; source: E. coli (TG1 transformants, plasmid pQemp), purified (Ni-NTA in 8 M urea, solubilized by …)
B5: Emp3 (C-terminal fragment of Emp) (domain or fragment)
chain: FAVPGYHAHKFVTPGHASIKINHFCVVPQINSFKVIPPYGHNSHRMHVPSFQNNTTATHQNAKVNKAYDYKYFYSYKVVKGVKKYFSFSQSNGYKIGKPSLNIKNVNYQYAVPSYSPTHYVPEFKGSLPAPRV
notes: primers EmpFor3UA (+622) and EmpRev3UA (+1024, holds the stop codon) relative to ATG; limits worked out from these positions and count on the precursor; source: E. coli (TG1 transformants, plasmid pQemp3), purified (Ni-NTA in 8 M urea, solubilized by stepwise dialysis)

Key:
[1] = target: fibrinogen (Homo sapiens) (UniProt P02671); assay: SPR; settings: cited from earlier work
[2] = target: fibronectin (Homo sapiens) (UniProt P02751); assay: SPR; settings: cited from earlier work
[3] = target: vitronectin (Homo sapiens) (UniProt P04004); assay: SPR; settings: cited from earlier work
[4] = target: vitronectin; assay: ELISA; matrix component (0.25 ug/well in 0.1 M Na2CO3, overnight 4 C) immobilised on polystyrene plates; Emp forms 0-1.5 uM added for 1 h at RT, PBST washes; detected with polyclonal anti-Emp IgG and AP-conjugated anti-rabbit IgG; KD from steady-state curves, one-site binding model
[5] = target: fibronectin (UniProt P02751 32-2477); assay: as above; settings: both partners purified
[6] = target: T2, collagen I (UniProt P02452 162-1218; P08123 80-1119); assay: as above; settings: both partners purified
T2 construct: collagen alpha-1(I) chain; collagen alpha-2(I) chain; Named only as collagen I; also called Cn I; Cn l

[7] = target: T1, fibrinogen; assay: as above; settings: both partners purified

Sequence of vitronectin (P04004 20-478): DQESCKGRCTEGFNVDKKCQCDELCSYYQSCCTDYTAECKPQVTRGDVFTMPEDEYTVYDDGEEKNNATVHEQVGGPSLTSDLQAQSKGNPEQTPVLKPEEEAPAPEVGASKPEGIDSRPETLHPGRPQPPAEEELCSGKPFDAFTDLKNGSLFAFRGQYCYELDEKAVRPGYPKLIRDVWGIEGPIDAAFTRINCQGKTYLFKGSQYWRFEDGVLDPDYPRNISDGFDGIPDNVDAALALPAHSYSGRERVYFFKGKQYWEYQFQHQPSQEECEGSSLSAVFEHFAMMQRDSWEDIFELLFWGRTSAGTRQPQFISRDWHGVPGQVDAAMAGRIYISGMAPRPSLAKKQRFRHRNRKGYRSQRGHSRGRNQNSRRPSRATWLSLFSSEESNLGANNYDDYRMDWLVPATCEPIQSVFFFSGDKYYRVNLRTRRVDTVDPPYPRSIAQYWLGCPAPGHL
Sequence of fibronectin (P02751 32-2477): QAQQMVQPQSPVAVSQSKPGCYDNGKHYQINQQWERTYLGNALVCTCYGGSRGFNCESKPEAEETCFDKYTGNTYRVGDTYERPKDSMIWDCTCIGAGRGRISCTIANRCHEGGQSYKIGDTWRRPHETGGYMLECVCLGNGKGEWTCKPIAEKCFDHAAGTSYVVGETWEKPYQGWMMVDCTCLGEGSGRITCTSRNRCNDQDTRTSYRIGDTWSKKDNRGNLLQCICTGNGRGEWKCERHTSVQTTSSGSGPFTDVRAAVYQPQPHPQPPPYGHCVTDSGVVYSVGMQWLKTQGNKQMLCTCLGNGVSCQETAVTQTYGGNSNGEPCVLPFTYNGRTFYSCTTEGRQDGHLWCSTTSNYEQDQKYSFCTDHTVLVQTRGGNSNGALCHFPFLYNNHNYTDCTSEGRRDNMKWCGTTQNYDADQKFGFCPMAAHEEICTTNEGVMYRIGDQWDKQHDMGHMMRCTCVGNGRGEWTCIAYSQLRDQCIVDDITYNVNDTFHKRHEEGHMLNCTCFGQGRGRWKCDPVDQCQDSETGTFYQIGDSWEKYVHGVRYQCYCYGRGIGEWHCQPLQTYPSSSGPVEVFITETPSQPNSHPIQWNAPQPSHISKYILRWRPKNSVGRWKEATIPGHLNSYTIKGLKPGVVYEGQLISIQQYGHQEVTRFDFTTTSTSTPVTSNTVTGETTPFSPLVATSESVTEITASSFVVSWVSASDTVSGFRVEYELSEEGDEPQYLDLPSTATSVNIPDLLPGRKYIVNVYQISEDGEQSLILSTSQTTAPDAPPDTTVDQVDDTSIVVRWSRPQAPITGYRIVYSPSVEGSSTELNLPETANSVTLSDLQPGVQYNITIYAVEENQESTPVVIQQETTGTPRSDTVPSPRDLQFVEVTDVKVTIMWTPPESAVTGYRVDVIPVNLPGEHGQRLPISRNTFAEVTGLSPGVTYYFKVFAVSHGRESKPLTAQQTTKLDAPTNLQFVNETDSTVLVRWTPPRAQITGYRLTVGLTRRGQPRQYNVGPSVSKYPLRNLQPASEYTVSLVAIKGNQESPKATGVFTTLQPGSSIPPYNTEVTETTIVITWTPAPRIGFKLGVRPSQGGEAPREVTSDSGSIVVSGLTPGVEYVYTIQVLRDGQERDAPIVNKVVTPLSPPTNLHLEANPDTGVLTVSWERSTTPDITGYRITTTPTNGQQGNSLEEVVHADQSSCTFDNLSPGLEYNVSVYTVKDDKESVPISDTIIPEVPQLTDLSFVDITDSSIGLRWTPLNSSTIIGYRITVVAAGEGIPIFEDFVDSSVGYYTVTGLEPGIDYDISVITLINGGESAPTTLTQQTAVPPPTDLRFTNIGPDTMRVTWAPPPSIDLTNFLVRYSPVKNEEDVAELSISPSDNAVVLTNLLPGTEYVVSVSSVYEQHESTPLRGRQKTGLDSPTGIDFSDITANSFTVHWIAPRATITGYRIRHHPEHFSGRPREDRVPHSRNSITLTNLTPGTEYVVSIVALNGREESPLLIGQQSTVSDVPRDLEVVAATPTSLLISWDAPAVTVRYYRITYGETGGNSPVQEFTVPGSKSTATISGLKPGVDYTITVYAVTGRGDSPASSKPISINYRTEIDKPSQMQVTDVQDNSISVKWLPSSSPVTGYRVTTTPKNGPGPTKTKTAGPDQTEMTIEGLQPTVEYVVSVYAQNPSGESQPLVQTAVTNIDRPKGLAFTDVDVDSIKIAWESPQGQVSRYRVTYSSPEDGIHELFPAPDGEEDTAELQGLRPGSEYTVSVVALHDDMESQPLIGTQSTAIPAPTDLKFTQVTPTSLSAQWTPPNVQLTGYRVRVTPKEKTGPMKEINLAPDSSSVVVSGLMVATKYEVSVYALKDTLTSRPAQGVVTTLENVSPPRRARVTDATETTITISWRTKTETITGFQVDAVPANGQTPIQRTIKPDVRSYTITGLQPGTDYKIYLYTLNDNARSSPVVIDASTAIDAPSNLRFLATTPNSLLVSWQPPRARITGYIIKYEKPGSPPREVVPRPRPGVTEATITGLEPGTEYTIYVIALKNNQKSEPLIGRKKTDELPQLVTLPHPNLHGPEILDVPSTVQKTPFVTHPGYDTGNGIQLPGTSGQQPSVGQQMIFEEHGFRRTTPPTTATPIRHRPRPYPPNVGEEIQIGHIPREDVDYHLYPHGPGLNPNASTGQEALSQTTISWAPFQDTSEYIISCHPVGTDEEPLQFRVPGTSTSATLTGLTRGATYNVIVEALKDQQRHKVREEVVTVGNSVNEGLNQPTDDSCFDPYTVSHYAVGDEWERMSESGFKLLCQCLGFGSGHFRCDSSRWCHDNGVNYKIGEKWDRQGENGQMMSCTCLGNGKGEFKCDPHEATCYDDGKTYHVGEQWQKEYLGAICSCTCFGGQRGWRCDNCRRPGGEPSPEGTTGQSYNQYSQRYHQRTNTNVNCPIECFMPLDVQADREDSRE
T2 sequence (P02452 162-1218, chain 1 of 2): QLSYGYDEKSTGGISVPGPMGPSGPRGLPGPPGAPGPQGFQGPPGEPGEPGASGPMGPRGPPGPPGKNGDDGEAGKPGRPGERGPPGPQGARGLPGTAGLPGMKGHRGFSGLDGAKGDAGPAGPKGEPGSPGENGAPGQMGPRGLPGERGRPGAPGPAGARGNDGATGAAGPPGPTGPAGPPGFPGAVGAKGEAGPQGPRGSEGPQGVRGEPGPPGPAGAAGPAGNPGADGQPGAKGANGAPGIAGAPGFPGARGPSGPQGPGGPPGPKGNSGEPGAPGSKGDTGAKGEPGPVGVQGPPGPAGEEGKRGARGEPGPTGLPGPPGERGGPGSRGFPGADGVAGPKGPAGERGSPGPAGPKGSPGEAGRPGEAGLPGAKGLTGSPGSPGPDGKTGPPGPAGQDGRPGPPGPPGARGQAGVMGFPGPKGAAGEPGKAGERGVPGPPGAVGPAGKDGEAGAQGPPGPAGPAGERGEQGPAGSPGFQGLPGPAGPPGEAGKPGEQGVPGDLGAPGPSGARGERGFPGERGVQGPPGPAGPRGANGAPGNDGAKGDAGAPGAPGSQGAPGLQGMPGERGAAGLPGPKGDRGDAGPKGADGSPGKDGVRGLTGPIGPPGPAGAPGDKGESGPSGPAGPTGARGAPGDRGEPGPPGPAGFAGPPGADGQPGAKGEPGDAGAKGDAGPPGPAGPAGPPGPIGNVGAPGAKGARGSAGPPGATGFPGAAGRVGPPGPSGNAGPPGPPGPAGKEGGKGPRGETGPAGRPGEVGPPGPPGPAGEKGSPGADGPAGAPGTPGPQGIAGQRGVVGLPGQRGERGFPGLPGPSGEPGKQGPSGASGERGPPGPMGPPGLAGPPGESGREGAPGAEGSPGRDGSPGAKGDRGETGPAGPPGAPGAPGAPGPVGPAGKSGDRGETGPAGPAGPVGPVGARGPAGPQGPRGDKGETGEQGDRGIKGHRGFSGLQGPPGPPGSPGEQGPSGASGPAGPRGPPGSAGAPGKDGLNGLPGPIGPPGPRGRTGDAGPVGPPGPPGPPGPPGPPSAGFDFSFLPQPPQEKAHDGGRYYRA
T2 sequence (P08123 80-1119, chain 2 of 2): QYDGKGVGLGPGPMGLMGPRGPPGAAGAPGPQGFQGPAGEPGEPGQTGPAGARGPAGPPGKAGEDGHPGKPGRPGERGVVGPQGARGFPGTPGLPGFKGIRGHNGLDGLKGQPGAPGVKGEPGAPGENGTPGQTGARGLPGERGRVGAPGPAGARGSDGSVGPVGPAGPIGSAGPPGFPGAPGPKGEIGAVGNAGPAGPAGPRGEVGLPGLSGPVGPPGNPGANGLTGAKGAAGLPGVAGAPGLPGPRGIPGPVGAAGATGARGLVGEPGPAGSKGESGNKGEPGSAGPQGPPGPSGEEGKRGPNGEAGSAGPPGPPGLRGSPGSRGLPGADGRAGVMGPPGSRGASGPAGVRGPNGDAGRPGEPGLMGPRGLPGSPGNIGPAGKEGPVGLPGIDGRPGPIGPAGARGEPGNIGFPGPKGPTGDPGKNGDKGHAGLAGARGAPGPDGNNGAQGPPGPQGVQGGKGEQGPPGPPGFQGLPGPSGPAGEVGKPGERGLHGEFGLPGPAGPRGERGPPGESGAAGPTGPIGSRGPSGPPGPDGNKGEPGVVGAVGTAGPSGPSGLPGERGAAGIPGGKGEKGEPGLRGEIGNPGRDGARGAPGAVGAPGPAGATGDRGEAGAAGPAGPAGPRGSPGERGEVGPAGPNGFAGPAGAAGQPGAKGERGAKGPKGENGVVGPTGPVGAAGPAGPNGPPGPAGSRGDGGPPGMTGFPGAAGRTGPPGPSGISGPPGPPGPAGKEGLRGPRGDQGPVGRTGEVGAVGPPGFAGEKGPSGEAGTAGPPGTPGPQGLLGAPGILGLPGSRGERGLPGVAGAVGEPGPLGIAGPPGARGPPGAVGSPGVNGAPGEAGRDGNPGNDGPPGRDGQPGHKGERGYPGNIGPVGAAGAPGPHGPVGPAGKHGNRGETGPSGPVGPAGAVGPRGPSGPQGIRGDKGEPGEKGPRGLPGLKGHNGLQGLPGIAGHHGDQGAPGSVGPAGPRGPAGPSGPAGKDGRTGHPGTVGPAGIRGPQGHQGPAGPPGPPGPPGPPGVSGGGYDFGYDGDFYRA
Sequence of vitronectin (Homo sapiens) (P04004 399-478): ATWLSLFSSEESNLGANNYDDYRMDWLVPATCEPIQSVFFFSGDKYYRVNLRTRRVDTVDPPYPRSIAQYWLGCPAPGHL
Sequence of fibronectin (Homo sapiens) (P02751 32-2477): as the sequence (P02751 32-2477) above

| Molecule | Kd [1] [nM] | Kd [2] [nM] | Kd [3] [nM] | Kd [4] [nM] | Kd [5] [nM] | Kd [6] [nM] | Kd [7] [nM] |
| --- | --- | --- | --- | --- | --- | --- | --- |
| Emp (from UniProt Q7A6P4) | 91 | 21 | 0.122 | – | – | – | – |
| B1 | – | – | – | 18 | 8 ± 3 | 13 ± 6 | 9 ± 2.6 |
| B2 | – | – | – | 200 | 404 ± 95 | 207 ± 44 | 556 ± 115 |
| B3 | – | – | – | 9 | 3 ± 2 | 31 ± 5 | 14 ± 3 |
| B4 | – | – | – | 34 | 43 ± 11 | 27 ± 5 | 70 ± 1 |
| B5 | – | – | – | 449 | 311 ± 79 | 32 ± 7 | 756 ± 224 |
